Target: SARS-CoV-2 Spike RBD-His Recombinant Protein (SARS-CoV-2) (UniProt P0DTC2)
Experiment: monoclonal phage ELISA, SPIKE RBD coated 200 ng/well; helper phage control

## M13KO7 auxiliary phage
  ELISA signal (OD450): 0.0434
